{"source": "patent US20090215081", "proteins": {"B1": {"name": "HA-TNIK, wild-type human TNIK full length expressed from pCIneo-HA-TNIK (protein)", "chain": "MASDSPARSLDEIDLSALRDPAGIFELVELVGNGTYGQVYKGRHVKTGQLAAIKVMDVTGDEEEEIKQEINMLKKYSHHRNIATYYGAFIKKNPPGMDDQLWLVMEFCGAGSVTDLIKNTKGNTLKEEWIAYICREILRGLSHLHQHKVIHRDIKGQNVLLTENAEVKLVDFGVSAQLDRTVGRRNTFIGTPYWMAPEVIACDENPDATYDFKSDLWSLGITAIEMAEGAPPLCDMHPMRALFLIPRNPAPRLKSKKWSKKFQSFIESCLVKNHSQRPATEQLMKHPFIRDQPNERQVRIQLKDHIDRTKKKRGEKDETEYEYSGSEEEEEENDSGEPSSILNLPGESTLRRDFLRLQLANKERSEALRRQQLEQQQRENEEHKRQLLAERQKRIEEQKEQRRRLEEQQRREKELRKQQEREQRRHYEEQMRREEERRRAEHEQEYIRRQLEEEQRQLEILQQQLLHEQALLLEYKRKQLEEQRQAERLQRQLKQERDYLVSLQHQRQEQRPVEKKPLYHYKEGMSPSEKPAWAKEVEERSRLNRQSSPAMPHKVANRISDPNLPPRSESFSISGVQPARTPPMLRPVDPQIPHLVAVKSQGPALTASQSVHEQPTKGLSGFQEALNVTSHRVEMPRQNSDPTSENPPLPTRIEKFDRSSWLRQEEDIPPKVPQRTTSISPALARKNSPGNGSALGPRLGSQPIRASNPDLRRTEPILESPLQRTSSGSSSSSSTPSSQPSSQGGSQPGSQAGSSERTRVRANSKSEGSPVLPHEPAKVKPEESRDITRPSRPASYKKAIDEDLTALAKELRELRIEETNRPMKKVTDYSSSSEESESSEEEEEDGESETHDGTVAVSDIPRLIPTGAPGSNEQYNVGMVGTHGLETSHADSFSGSISREGTLMIRETSGEKKRSGHSDSNGFAGHINLPDLVQQSHSPAGTPTEGLGRVSTHSQEMDSGTEYGMGSSTKASFTPFVDPRVYQTSPTDEDEEDEESSAAALFTSELLRQEQAKLNEARKISVVNVNPTNIRPHSDTPEIRKYKKRFNSEILCAALWGVNLLVGTENGLMLLDRSGQGKVYNLINRRRFQQMDVLEGLNVLVTISGKKNKLRVYYLSWLRNRILHNDPEVEKKQGWITVGDLEGCIHYKVVKYERIKFLVIALKNAVEIYAWAPKPYHKFMAFKSFADLQHKPLLVDLTVEEGQRLKVIFGSHTGFHVIDVDSGNSYDIYIPSHIQGNITPHAIVILPKTDGMEMLVCYEDEGVYVNTYGRITKDVVLQWGEMPTSVAYIHSNQIMGWGEKAIEIRSVETGHLDGVFMHKRAQRLKFLCERNDKVFFASVRSGGSSQVFFMTLNRNSMMNW"}}, "molecular_target": "T1, FLAG-TCF4, full length human TCF4 expressed from pFLAG-CMV-4, Q9NQB0", "T1 chain": "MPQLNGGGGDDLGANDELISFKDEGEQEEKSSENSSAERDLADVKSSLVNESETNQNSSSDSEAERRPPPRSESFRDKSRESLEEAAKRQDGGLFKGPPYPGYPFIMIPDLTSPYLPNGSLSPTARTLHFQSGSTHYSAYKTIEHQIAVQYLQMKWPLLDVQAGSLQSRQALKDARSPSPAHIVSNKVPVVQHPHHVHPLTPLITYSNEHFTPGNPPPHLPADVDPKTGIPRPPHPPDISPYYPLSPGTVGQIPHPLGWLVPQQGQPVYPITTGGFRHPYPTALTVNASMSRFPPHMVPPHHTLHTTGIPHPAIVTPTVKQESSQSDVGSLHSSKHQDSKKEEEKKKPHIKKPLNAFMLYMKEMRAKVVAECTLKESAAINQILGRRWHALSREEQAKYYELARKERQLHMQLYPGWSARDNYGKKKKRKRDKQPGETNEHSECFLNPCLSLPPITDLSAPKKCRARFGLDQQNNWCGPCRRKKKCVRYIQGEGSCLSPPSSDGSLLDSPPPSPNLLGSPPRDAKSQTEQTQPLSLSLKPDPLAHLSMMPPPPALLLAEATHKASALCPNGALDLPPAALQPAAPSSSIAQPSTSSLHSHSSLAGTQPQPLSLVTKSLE", "data": [{"protein": "B1", "values": [{"measurement": "serine phosphorylation of TCF4 (immunoprecipitation with anti-TCF4, immunoblot with anti-phospho-serine antibody)", "result": "the serine phosphorylation band of TCF4 was detected"}]}]}
